Results from the nanobody polyreactivity screen of Harvey et al. (2022).

experiment: yeast display, Sf9 membrane polyspecificity reagent, FACS + sequencing; frameworks hold sequencing errors
Summary of the method: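 Nanobodies from a synthetic yeast display library (Saccharomyces cerevisiae BJ5465), induced 36–48 hours with galactose, were stained 1 hour at 4 °C with 10% biotinylated, detergent-solubilized Sf9 membrane reagent, enriched on streptavidin microbeads, then FACS-sorted. Anti-HA (expression) and streptavidin (reagent binding) fluorescence set low and high (top ~1%) gates. Polyreactivity labels come from the gate of origin. Genes were colony-PCR amplified, MiSeq 2 × 250 sequenced and filtered by CDR length.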

Row | Sequence | polyreactivity (PSR sort gate)
1 | QVQLVESGGGLVQAGGSLRLSCAASGRIFFTYAMGWYRQAPGKERELVASITGSGGSTYYADSVKGRFTISRDNAKNTVYLQMNSLQPEETAVYYCAAALFPRQLYRKFYYWGQGTQVTVSS | low polyreactivity
2 | QVQLVESGGGLFQAGRSLRISCAASGFIFSQNTMGWYRQAPGKEWELVAAISKSRGTTYYADSVKGRYTITRDNAKNTVYLQMYSLKPEDTAVYYCAARIQWPTWSLYYYWGQGTQVTVSS | high polyreactivity
3 | QVQLVESGGGLVQAGGSLRLSCAASGSTFGPYAMGWYRQAPGKERELVAAISSRGARTYYADSVKGRFTISRDNAKNTVYLQMNSLKPEDTAVYYCANTYHGTAYDYWGQGTQVTVSS | high polyreactivity
4 | QVQLVESGGGLVQAGGSLRISCAASGITFRWYAMGWYRQAPGKERELVAGINSSGGSTNYADSVKGRFTISRDNAKNTVYLQMNSLKPADTAVYYCNADLRSEYDYWGQGTQETVSS | low polyreactivity
5 | QVQLVDSGGGLVQAGGSLRLSCAASGSNFVWYAMGWYIQAPGKEREMVAAITWSGGSTYYADSVKGRFTISRDNAKNTVYLPMNSLKPEDSAVYYFNAVSYRYYSKLGSWGQGTQVTLSS | high polyreactivity
6 | QVQLVESGGGLVQAGGSLRLSCAASGSTFRYYAMGWYRQAPGKERELVAAITRSGGSTSYADSVKGRFTISRDNAKNTVYLQMNSLKPEDTAVYYCAARFYRPYYARQGYNYWGQGTQVTVSS | high polyreactivity
7 | QVQIVESGGGLVQAGGSLRLSCAASGSIFKYYAMGSYRQAPVKERELVAAISSGGSTKYADSVKARFTISRDNEKNTVYLHMTRLIPEDTAVYYCAARDPSRHARRAYDYWGQGTQVTVSS | low polyreactivity
8 | QVQLLESGGGLVQAGGSLRLSCAASGRIFSRYAMGWYRQAPGKERELVASISWSGDGTYYADSVKGRFTISRDNAKNTVYLQMNSLKPEDTAVYYCAAAPWDAPWSGYEYWGQGTEVTVSS | high polyreactivity
9 | QVQLVESGGVLVQAGGSLRLSCAASGRIFRYYAMGWYRQAPGKERELVAAISSDGSTDYADSVKGRFTISRDNAKNTVYLLMNSLKPEDTAVYYCAASVVSYGHDYWGQGTQVTVSS | low polyreactivity
10 | QVQLVESGGGLVQAGGSLRLICAASGFIFDTYTMGWYRQAPGKERELVAAISRSGASTYYADSVKGRFTISRDNAKNTVYLQMNSLKPEDTAVYYCATVYYPSYRGGYDYWGQGTQVTVSS | high polyreactivity
11 | QVQLVESGGGLGQAGGSLRLSCAASGFIFGSYAMGWYRQAPGKARELVAAISWSGASTYYADSVKGRFTISRDNAKKTVYLQMNSLIPEDTAVYYCAAVSRYGWYDYWGQGTQVTVSS | high polyreactivity
12 | QVQLVESGGGLVQAGGSLRLSCAASGRTFSRYVMGWYRQAPGKERELVATISDVGNTYYADSVKGRFTISRDNAKNTVYLQMNSLKPEDTAVYYCNRVYFTSRQGQMYYWGQGTQVTVSS | high polyreactivity
13 | QVQLVESGGGLVQAGGSLRLICAASGSTLNSYVMGWSRQAPGKERDMVATIRSGSSTNYADSVKGRFTISRDNAKNTVYFQMNSLIPEDTAVYSCAADAYSLCYDSWGQGTQVTVSS | low polyreactivity
14 | QVQLVESGGGFVQAGGSLRFSCAASGRIFPGYAMGWYRQAPGKERELVAAISASGGSTYDADSVKGRFTISRDNAKNPVYLQMNSLKPEDPAVYYCNAVYRLIRFDYWGQGTQVTVSS | high polyreactivity
15 | QVQLVESGVGLVQAGGSLRLSCAASGSIFFYAMGWYRQAPGKERELVADITYTGGSKYADSVKGRFTISRDNAKNTVYLQMNSLKPEDTAVYYCAKLDGGLFDYWGQGTQVTVSS | low polyreactivity
16 | QVQLVESGGGLVQAGGSLRISCAASGRIFANYAMGWYRQAPGKEMELVAAITTNGGGTYYADSVKVRFTISRDNAKNTVYLQMKSLIPEDTAVYYCIAVKQRSSIFDYWGQGTQLTVSS | low polyreactivity
17 | QVQLVESGGGLVQAGGSLRLSCAASGYTLSLNAMGWYRQAPGKERELVAVISWNGGRTRYADSVKGRFTISRDNAKNTVYLQMNSLKPEDTAVYYCNADIYARTYAGYYQWRPYDYWGQGTQVTVSS | high polyreactivity
18 | QVQLVESGGGLVHAGGSLRLSCAASGSIYGANDMGWYRKATGKERELVAAITRSGTRTYYADSVKGLFTISRDNAKNTVYLQMNSLKPEDTAVYYCAAVLRLSTLTTDFGYWGQGTQVTVSS | high polyreactivity
19 | QVQLVESGGGLVQAGGRLRLSCAASGRTFSPYAMGWYREAPGKEREFVAASTWSAGRTYYADSVKGRFTISRDNAKNTVYLQMNSLKPEDTAVYYCNARDRSITYPRYDYWGQGTQVTVSS | high polyreactivity
20 | QVQLVESGGGLVQAGGSLRLSCAASGFTFPYNAMGWYRQAPGKERELVAAISRGGGRTYYADSVKGRFTISRDNAKNTVYLQMNSLKPEDTAVYYCAKAPGQDTPYPYGYWGQGTQVTVSS | high polyreactivity
21 | QVQLVESGGGLVQAGGSLRLSCAASGSTIRYYAMGWYRQAPGKERQLVAYITTSGGTYYADSVKGRFTISRDNAKNTVYLQMHSLKPEDTAVYYCAARRQDYTYYRIYHFDYWGQGTQVTVSS | high polyreactivity

Row | Sequence | polyreactivity (PSR sort gate)
22 | QVQLVESGGGLVQAGGSLRLSCAASGRTFGYYAMGWYRQAPGKERELVAAISWRGGSTYYADSVKGRFTISRDNAKNTVYLQMNSLKPEDTAVYYCHRAYVYPQGPYPYDYWGQGTQVTVSS | high polyreactivity
23 | QVQLVESGGGLVQPVGSLRLSCAASGYTFPRYTMGWSRQAPGKERELVAAITSSGSTNYADSVKGRFTISRDNAKNTVYLQMNSLKPEDTAVYYCNKARIRTWSRGYDYWGQGTQLTVSS | high polyreactivity
24 | QVQLVESGGGLVQAGGSLRLSCAASGTSGYYAMGWYRQAPGKERELVAGISIGGSTNYADSVKGRFTISRDNAKNTVYLQMNSLKPEDTAVYYCAVDGYVAFSPDRNNYWGQGTQVTLSS | low polyreactivity
25 | QVHLVESGGGLVQAGGSLRLSCAASGSTFGWYAMGWYRPSPGKERELVAAIRSNGGSTYYADSLKGRFTISRDNAKNTVYLQMNSLKPEDTAVFYCAARGSPSKHHWYDYWGQGTQVTVSS | low polyreactivity
26 | QVQLVESGGGLVQAGGSLRLSCAASGRIFEFNAMGRYIQAPGKERELVARISYSGGSTYYADSLKGRFTISRDNAKNTVYLQMNSLKPEDTAVYYCAAKPSRYFYNAWGYRQVYQYDYWGQGTQVTVSS | high polyreactivity
27 | QVQLVESGGGLVQAGGSLRLSCAASGSIFTWYAMGWYRQAPGKERELVAAITRGGSTYADSVKGRFTISRDNAKYTVYLQMNSLKPEDTAVYYCNAVYGVYDFNYWGQGTQVTVSS | low polyreactivity
28 | QLQLVESGGGLVQAGGSLSLSCAASGRTVYGYSMGWYRQAPGKERELVAAISKTGGSTYYADSVKGRFTISRDNAKNTVYLQMNSLKPEDTAVYYCNARDTSGFTRFSSKYDYWGQGTQVTVSS | high polyreactivity
29 | QVQLVESGGGLVQAGGSLRLSSAASGYTFSRNAMGWYRQAPGKERELVASISSRGGSTRYADSVKGRFTISRDNAKYTVYLQMNSLKPEDTAVYYCAVRGLYSPFTYGYWGQGTQVTVSS | high polyreactivity
30 | QVQLVESGGGLVQAGGSLRLSCAASGRIFVVYAMGWYRQAPGTETELVANITISGGRTYYADSVKGRFTISRDNAKNTVYVQMNSLKPEDTAVYYCAATSGALYYGYEYWGQGTQVTVSS | low polyreactivity
31 | QVQLVESGGGLVQSVGSLRLSCAASGFTFRWYAMGWYRQAPGKERELVAAITSRGGTTYYADSVKGRFTISRDNAKNTVYLQMNSLNPEDTAVYYCAARRAGRRGYYYWGQGTQVTVSS | high polyreactivity
32 | QVQLVESGGGLVKAGGSLRLSCGASGSIIVRYAMGWYRQAPGKERELVASISKRGGSTYYADSVKGRFTISRDNAKNTVYLQMNSLKPEDTEVYYCAAVCYYLVKFDYWGLGTQVTVSS | high polyreactivity
33 | QVQLVESGGGLVQAGGSLRLSCAASGSNFSTYVMGWYRQAPGKERELVATISASDGSTYYADSVKGRFTISRDNAKNTVYLQMNSLKPEDSAVYYCAADTQEYRPTYDYWGQGTQVTVSS | low polyreactivity
34 | QVQLGESGGGLVQAGGSLRLSCAASGFTFQEYAMGWYRQAPGKDRELVAAITSGTTTNYADSVKGRFTISRDNAKNTVYLQMNSLKPEDTAVYYCNVRRQSGRYRVYEYDYWGQGTQVTVSS | low polyreactivity
35 | QVQLVESGGGLFQAGGSLRLICAASGITFEYNTMGWYRQAAGKERELVAAITSDGGSTYYADSVKGRFSISRDNAKNTVYLQMNSLKPEDTAVYYFAAVFYDQYYYWGQGTQVTVSS | high polyreactivity
36 | QVQLVESGGGLVQAGGSLRLSCAASGRTLRINTMGWYRQAPGKERELVADITSSGGSTYYADSVKGRFTISRDNAKNTVYLQMNSLKPEDTAVYYCAADPIDIYYWEFDYLGQGTQVTVSS | low polyreactivity
37 | QVHLVESGGGLVQAGGRLRLSCDASGRTFKGYAMGWYRQAPGQERELGAAISFTGGSTYYADSVKGRFTISRDNAKNPVDLQMNSLKPEDTAVYYCNAVNYRGYGYWGQGTQVTVSS | high polyreactivity
38 | QVQLVESGGGLVQAGGSLRLSCAASGFIFGAYTMGWYRQAPGKESELVADISRRGGTTYYADSVKGRFTISRDNAKNTVYLQMNSLKPEDTAVYYCANVANFWYNTTLRGYYYWGQGTQVSVSS | high polyreactivity
39 | QVQLVESVGGLVQAGGSLRLSCAASGLILANYAMGWYRQAPGKERELVAAISSSGGSTYYADSVKGRFTISRDNAKNTVYLQMNSLKPEDTAVYYCAKAYRGGSAGKSYYYWGQGTQVTVSS | high polyreactivity
40 | QVQLEESGGGLVQAGGSLRLSCAASGRIFYTYVMGWYRQAPEKERELVAAITGGGSKYYAYSVKGRFTISRDNAKNTVYLQMNSLKPEDTAVSYCAKRSYGDRDERYDSWGQGTQVTVSS | low polyreactivity
41 | QVQLVESGGGLVQAGGSLRLSCAASGLTFASYAMGWYRQAPGKERELVARISRSGGSTYYADSVKGRFTISRDNAKNTVYLQMNSLKPEDTAVYYCAADYIFRRYPVGGIYDYDYWGQGTQVTVSS | high polyreactivity
